# Measured values: patent US20240376151A1, “STAPLED PEPTIDES AND METHODS THEREOF” (FOG PHARMACEUTICALS, INC., priority 2022, published 2024)
# Target: T1, RNF31 PUB domain (Homo sapiens, UniProt Q96EP0)
# T1 construct: MBP-TEV (N, cleaved yes); made in house; host or cells: E. coli BL21 (DE3) pLysS
# T1 sequence (Q96EP0 1-179): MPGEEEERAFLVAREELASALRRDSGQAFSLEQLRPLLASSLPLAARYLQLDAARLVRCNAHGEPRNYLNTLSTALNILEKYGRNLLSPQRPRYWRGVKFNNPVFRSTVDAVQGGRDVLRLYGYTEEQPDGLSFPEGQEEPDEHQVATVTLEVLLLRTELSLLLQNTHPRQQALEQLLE
# Test: Phage Library Screening with NGS, RNF31 PUB domain
# Format: binding
# Settings: for Phage library screen NGS readout, Target Concentration 10 / Phage library screen NGS readout, Target Concentration 30 / Phage library screen NGS readout, Target Concentration 100 / Phage library screen NGS readout, Target Concentration 300 / Phage library screen NGS readout, Target Concentration 1000: RNF31 PUB domain clusters C41-C45; for Phage library screen NGS readout, BLANK: clusters C41-C45
# [1] = target concentration 1000, first column
# [2] = target concentration 1000, second column
Sequence,"Phage library screen NGS readout, Target Concentration 10","Phage library screen NGS readout, Target Concentration 30","Phage library screen NGS readout, Target Concentration 100","Phage library screen NGS readout, Target Concentration 300","Phage library screen NGS readout, Target Concentration 1000 [1]","Phage library screen NGS readout, Target Concentration 1000 [2]","Phage library screen NGS readout, BLANK (column 1 of 5)","Phage library screen NGS readout, BLANK (column 2 of 5)","Phage library screen NGS readout, BLANK (column 3 of 5)","Phage library screen NGS readout, BLANK (column 4 of 5)","Phage library screen NGS readout, BLANK (column 5 of 5)"
DPAWWNCLYAADECWSW,0,0,0,3,13,6,0,0,1,0,0
DPAEDECQDAAILCSYN,1,3,0,7,19,6,1,0,0,0,1
DPAYTLCSWAAMYCDSM,0,1,0,0,5,6,0,1,1,4,2
DPATEACFDAAIECTYY,0,0,0,2,7,5,0,0,0,0,0
DPAMEWCWDAAVFCTYS,1,1,0,6,18,16,2,1,0,1,1
DPAIAQCMLAAQVCSTY,2,0,0,5,54,34,1,0,0,0,0
DPALEDCQWAALYCDEY,0,0,1,2,7,9,1,1,1,0,0
DPASHMCLEAAVMCTYD,0,0,0,4,10,13,0,0,0,0,0
DPAYWDCLYAAADCAFY,0,0,0,4,8,5,2,0,0,0,0

# Further lines, results first:
"Phage library screen NGS readout, Target Concentration 10","Phage library screen NGS readout, Target Concentration 30","Phage library screen NGS readout, Target Concentration 100","Phage library screen NGS readout, Target Concentration 300","Phage library screen NGS readout, Target Concentration 1000 [1]","Phage library screen NGS readout, Target Concentration 1000 [2]","Phage library screen NGS readout, BLANK (column 1 of 5)","Phage library screen NGS readout, BLANK (column 2 of 5)","Phage library screen NGS readout, BLANK (column 3 of 5)","Phage library screen NGS readout, BLANK (column 4 of 5)","Phage library screen NGS readout, BLANK (column 5 of 5)",Sequence
0,1,3,10,42,49,0,0,0,1,0,DPAIRECMLAALVCSTY
0,0,0,4,12,10,0,0,0,0,0,DPAQYQCDIAAQVCSTY
0,0,3,31,161,145,1,2,0,0,0,DPAFTDCQLAAAVCMTY
2,3,4,47,186,171,2,0,0,3,1,DPALEICWDAAIQCSYV
0,0,0,2,7,7,0,0,0,1,0,DPAIWECVSAAAVCMTY
